# B1: NG83: anti-HER3 mAb; light chain CDRs SEQ ID NOs: 7-9, heavy chain CDRs 10-12 (antibody, V domains shown)
# VH: QIQLVQSGPELKKRGETVKISCKASGYTFTNYGMNWVRQAPGKGLKCMGWINTYAGEPTYADDFKGRFAFSLDSSASTAYLQINNLKNEDMATYFCARGGITGAMDYWGQGTSVTVSS
# VL: DVVMTQKTSSLSTSLGDRVTISCRASQDIRNYLNWYQQKPDGTVKLLIYYTSRLHSGVPSRFSGSGSGTDYSLTISDLEQEDIATYFCQQGNTLPWTFGGGTKLAIK
# modifications: VH chain of NG83 polypeptide; VL chain of NG83 polypeptide
# B2: XC252: anti-HER3 mAb generated as described in Chen X, et al. (1996); heavy and light chain SEQ ID NOs: 49 and 53 (antibody, V domains shown)
# VH: EVQLQQSGAELVRPGVSVKISCKGSGYTFTDYAMHWVKQSHAKSLEWIGVISTYYGDPRDNQKFKGKATMTVDKSSSTAYMELARLTSEDSAIYYCARGDYDWYAIDYWGQGTSVTVSS
# VL: DVVMTQTPLSLPVSLGDQASISCRSSQSIVHSDGNTYLEWYLQKPGQSPKLLIYKVSNRFSGVPDRFSGSGSGTDFTLKISRVEAEDLGVYYCFQGSHVPPTFGGGTKLEIK
# modifications: VH chain of XC252 polypeptide; VL chain of XC252 polypeptide
# Target: T1, IgB3 (Homo sapiens, UniProt P21860)
# T1 construct: To produce IgB3 (recombinant HER3 extracellular domain fused to a human IgG Fc domain); made in house
# T1 sequence (P21860 20-643 limits assumed): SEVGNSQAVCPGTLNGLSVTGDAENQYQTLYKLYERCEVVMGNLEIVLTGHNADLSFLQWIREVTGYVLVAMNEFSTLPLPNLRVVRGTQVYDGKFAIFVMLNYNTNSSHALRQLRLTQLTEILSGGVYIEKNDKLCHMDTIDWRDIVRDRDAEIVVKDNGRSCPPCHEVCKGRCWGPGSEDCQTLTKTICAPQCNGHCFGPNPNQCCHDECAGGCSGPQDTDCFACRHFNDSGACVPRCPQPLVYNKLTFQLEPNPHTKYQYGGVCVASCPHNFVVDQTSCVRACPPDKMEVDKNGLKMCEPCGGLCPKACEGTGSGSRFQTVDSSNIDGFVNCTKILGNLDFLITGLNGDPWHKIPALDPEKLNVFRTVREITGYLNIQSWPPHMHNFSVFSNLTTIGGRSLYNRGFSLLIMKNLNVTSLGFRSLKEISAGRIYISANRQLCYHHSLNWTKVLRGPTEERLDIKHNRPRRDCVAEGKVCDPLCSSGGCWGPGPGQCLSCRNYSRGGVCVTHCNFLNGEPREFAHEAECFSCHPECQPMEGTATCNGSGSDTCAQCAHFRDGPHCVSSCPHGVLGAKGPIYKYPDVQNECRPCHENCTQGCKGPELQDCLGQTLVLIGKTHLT
# T1 sequence (P01857 99-330 partner limits assumed): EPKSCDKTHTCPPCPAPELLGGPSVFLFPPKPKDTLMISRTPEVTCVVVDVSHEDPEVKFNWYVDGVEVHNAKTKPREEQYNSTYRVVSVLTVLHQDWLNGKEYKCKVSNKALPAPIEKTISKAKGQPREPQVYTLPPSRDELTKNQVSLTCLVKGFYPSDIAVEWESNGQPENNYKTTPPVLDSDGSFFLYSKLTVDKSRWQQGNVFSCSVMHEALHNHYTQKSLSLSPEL
# Experiment: Antibody competition assay with Lumi4(Tb)-labeled NG33 on IgB3-coated plates
# Format: binding
# Conditions: NG33-K2 1 nM
# Protocol: FIGS. 12A-D show a combination of two mAbs directed to two different epitopes of HER3. (FIGS. 12A and 12B) The antibodies NG33 and XC252 were labeled with the fluorescent dye Lumi4® Tb Cryptate (K2). 96 well-plate were coated with IgB3 (1.5 μg/ml), blocked with PBS-BSA and incubated for 1 h with various concentrations of mAbs under gentle shaking at RT. The labeled mAb, NG33-K2 (FIG. 12A) or XC252-K2 (FIG. 12B), was then added at 1 nM final concentration. After ah incubation, the plate was washed 4 times with KREBS buffer, and the fluorescence intensity at 610 nm was measured using a fluorescence microplate reader. (FIG. 12C) The various anti-HER3 mAb combinations were studied for their ability to trigger HER3 degradation using N87 cells. Cells were treated for 2 h at 37° C. with mAb (10 μg/ml). After cell lysis and protein extraction, the samples were subjected to immunoblotting with the indicated antibodies. (FIG. 12D) The combination's capacity to modulate NRG-induced phosphorylation of HER3, AKT and ERK was evaluated using N87 cells. After 20 min treatment at 37° C. with 10 μg/ml of mAbs, NRG (20 ng/ml) was added to the cells for 10 min. The cells were then lysed, and equal quantities of lysate protein were electrophoresed before immunoblotting, as indicated.
# Agent labeling was performed by Cisbio. […] Following 1 h incubation, the plate was washed 4 times with KREBS buffer (146 mM NaCl, 4 mM KCl, 0.5 mM MgCl2, 1 mM CaCl2, 10 mM Hepes, 1 gr/L glucose, and 1 mg/mL albumin), and the fluorescent intensity (excitation: 488 nm, emission: 610 nm) was measured using a fluorescence microplate reader. […] Finally, following two washes with KREBS buffer, the fluorescence intensity was measured at 670 nm (excitation: 620 nm).
# Combinations of antibodies directed against two different epitopes of the same receptor, as has been previously shown, can improve the effect of treatment with a single mAb (28, 29). […] First, it was determined which antibody from the anti-HER3 series targets an epitope distinct from that targeted by NG33. […]
row,Molecule,effect on binding of Lumi4(Tb)-labeled NG33 to IgB3
1,B1,potentiated NG33 binding to IgB3
2,B2,did not alter NG33 binding
